Assay results reported in patent publication US20190248902A1 (published 2019).
Residue numbers refer to the chain shown, from its start.

B1: 65E9 (antibody, V domains shown)
VH: not shown
VL: SYELTQPPSVSVSPGQTASITCSGDKLGNKYDYWYQQKPGQSPVLVIYQDRKRPSGIPERFSGSNSGNTATLTISGTQAMDEADYYCQAWDNSTVVFGGGTKLTVL
notes: hybridoma mAb
B2: 58G11 (antibody, V domains shown)
VH: EVQLVESGGGLVQPGGSLRLSCAASGFTFSSYSMNWVRQAPGKGLEWISYISTSSSTIFYADSVKGRFTISRDSAKNSLYLQMNSLRDEDTAVYYCARGDTAMVLYYYGMDVWGQGTTVTVSS
VL: B1 VL with N29D, D32A, Y33S, R51N, D91N, S93N, V96M
notes: hybridoma mAb
B3: 52H1 (antibody, V domains shown)
VH: QVQLVESGGGVVQPGRSLRLSCAASGFTFSGYGMHWVRQAPGKGLEWVAVIWYDGSNKYYADSVKGRFTISRDNSKNTLYLQMNSLRAEDTAVYYCARDRVYCSSSSCSYYYYYYGMDVWGQGTTVTVSS
VL: B1 VL with S11F, C22S, N29D, D32V, Y33S
notes: hybridoma mAb
B4: 68G6 (antibody, V domains shown)
VH: QVQLVQFGGEVKKPGSSVKVSCKASGYTFTGYYMHWVRQAPGQGLEWMGSIYRNSGGTNYAQKFQGRVTMTRDKSISTAYMEKSRIRSDDTAVYYCARAFYYGSGTYYNEFDYWGQGTLVTVSS
VL: B1 VL with L4V, N29D, D32T, P39A, V44F, E59D, E82A, Y85F, V95A
notes: hybridoma mAb
B5: 59F2 (antibody, V domains shown)
VH: EVQLVESGGGLVQPGGSLRLSCGASGFTFSSYSMNWVRQAPGKGLEWVSYISGSSNIIYYTDSVKGRFTISRDNAKNSLYLQMNSLRDEDTAVYYCARADTPMVLYFYGMDVWGQGTTVTVSS
VL: B1 VL with N29D, D32A, Y33S, K38R, R51N, S93N
notes: hybridoma mAb
B6: 4B3 (antibody, V domains shown)
VH: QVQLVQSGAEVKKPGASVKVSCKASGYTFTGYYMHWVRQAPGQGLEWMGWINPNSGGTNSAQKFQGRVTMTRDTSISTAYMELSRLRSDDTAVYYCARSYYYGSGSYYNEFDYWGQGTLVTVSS
VL: B1 VL with G15R, A18V, N29D, D32A, Y33C, S93N, V96I
notes: hybridoma mAb
B7: 72B4 (antibody, V domains shown)
VH: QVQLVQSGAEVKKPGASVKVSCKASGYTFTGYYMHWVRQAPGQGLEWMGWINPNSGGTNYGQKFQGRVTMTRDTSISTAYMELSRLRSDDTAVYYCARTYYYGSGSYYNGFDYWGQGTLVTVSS
VL: B1 VL with N29D, D32A, Y33W, K38R, Q49E
notes: hybridoma mAb
B8: 60D2 (antibody, V domains shown)
VH: B5 VH with G53E, K76M
VL: B1 VL with D25N, N29D, D32A, Y33S, K38R, R51N, A79T, S93N
notes: hybridoma mAb
B9: 50G9 (antibody, V domains shown)
VH: QVQLVESGGGVVQPGRSLRLSCAASGFIFSSYGMHWVRQAPGKGLEWVAVISQDGIIRYYADSVKGRFTISRDNSKNTLYLQMNSLRAEDTAVYYCARDVKQWLVRTYGMDVWGQGTTVTVSS
VL: SYELTQPPSVSVSPGQTASITCSGDKLGDKYACWYQQKPGQSPVLVIYQDSKRPSGIPERFSGSNSGNTATLTISGTQARDEAEYYCQARNSRRGVFGGGTRLTVL
notes: hybridoma mAb
B10: 65F10 (antibody, V domains shown)
VH: QVQLVQSGAEVKKPGASVKVSCKASGYTFTGYHMHWVRQAPGQGLEWMGWINPNNGGTSYAQKFQDRVNMTRDTSISTAYMELSRLRSDDTAVYYCARDSRSSWDYWGQGTLVTVSS
VL: DIQMTQSPSSVSASVGDRVTITCRGGQGISTWLAWYQQKPGKAPKLLIYAASILQSGVPSRFRGRGSGTDFTLTISSLQPEDFATYYCQQGNIFPFTFGRGTKVDIK
notes: hybridoma mAb
B11: 63A10 (antibody, V domains shown)
VH: EVQLVESGGGLVQPGGSLRLSCAASGFTFSSYSMNWVRQAPGKGLEWVSYISSSTSTIYYAASVKGRFTISRDNAKNSLYLQMNSLRDEDTAVYYCARDHRYYDSSGYYSDAFDIWGQGTMVTVSS
VL: NFMLTQPHSVSESPGKTVTISCTRSNGSIVSNYVQWYQQRPGSSPTTVIYEDKRRPSGVPDRFSGSIDSSSNSASLTISGLKTEDEADYYCQSYDSINVVFGGGTKLTVL
notes: hybridoma mAb
B12: 63G7 (antibody, V domains shown)
VH: B11 VH
VL: B11 VL with V48M, K53S, Y90S, S96G
notes: hybridoma mAb
B13: 7E11 (antibody, V domains shown)
VH: QVQLVESGGGVVQPGRSLRLSCAASGFTFSSFGMHWVRQAPGKGLEWVAIIWHDGSNKYYADSVKGRFTISRDNSNNTLYLQMSSLRAEDTAVYYCARDLSMGGMDVWGQGTTVTVSS
VL: DIQMTQSPSSLSASVGDRVTIACRASQNIISYLNWYQQKPGKAPKFLIYTASSLQSGVPSRFSGSGSGTDFTLTISSLQPEDFAIYYCQQTYSTPLTFGGGTKVEIK
notes: hybridoma mAb
B14: 6D9 (antibody, V domains shown)
VH: EVQLVESGGGLVKPGGSLRLSCAASGFTFSNAWMNWVRLAPGKGLEWVGRIKSKTDGGTTDYAAPVKGRFTISRDDSENTLYLQMNSLKTEDTAVYYCSTDTGPIAARLAYYYYYAMDVWGQGTTVTVSS
VL: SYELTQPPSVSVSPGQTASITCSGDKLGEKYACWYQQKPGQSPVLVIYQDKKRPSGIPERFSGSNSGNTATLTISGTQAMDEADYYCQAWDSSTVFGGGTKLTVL
notes: hybridoma mAb
B15: 60E8 (antibody, V domains shown)
VH: QVQLQESGPGLVRPSATLSLTCTVSGGSISRSSYYWGWIRQPPGKGLEWIGSIYYSGSASYNPSLKSRVTISVDTSENQFSLRLSSVTAADTAVYYCARLDSGWSFDYWGQGTLVTVSS
VL: DIQMTQSPSSLSASVGDRVTFTCRASQGIRNDLGWFQQKPGKAPKRLIYAASSLQSGVPSRFSGSGSGTEFTLTISSLQPEDFATYYCLQHSSYPLTFGGGTKVEIK
notes: hybridoma mAb
B16: 64B12 (antibody, V domains shown)
VH: B15 VH with V2L, R13K, A16E, G27V, A59T, E77K, R83K
VL: DIQMTQSPSSLSASVGDRVTITCRASQDISNYLNWYQQKPGTAPNLLISDASILETGVPSTFSGSGSGTDFTFTISSLQPEDIATYYCQQSDNLPCSFGQGTKVEIK
notes: hybridoma mAb
B17: 4A2 (antibody, V domains shown)
VH: QVQLVQSGTEVKKPGASVKVSCKASGYTFTNYDINWVRQATGQGLEWMGWMHPNSGNTGYAQKFQGRVTLTRNTSISTAYMELSSLRSEDTAVYYCASSSGWYYFDYWGQGTLVTVSS
VL: DIVMTQSPDSLAVSLGERATINCKSSQSILHSSNNNNYLAWFQQKPGQPPKLLLYWASTRESGVPDRFSGSGSGTDFTLTISSLQPEDVAVYYCQQYYNTPVTFGPGTKVGIK
notes: hybridoma mAb
B18: 6G6 (antibody, V domains shown)
VH: B17 VH with T9A, K12R, L45P, Q62K, L70M, T78A, E82V, S98L
VL: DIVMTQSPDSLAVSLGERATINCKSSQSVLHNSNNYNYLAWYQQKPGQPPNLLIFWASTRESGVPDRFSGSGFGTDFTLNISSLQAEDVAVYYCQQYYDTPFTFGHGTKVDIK
notes: hybridoma mAb

Assays:
[1] = target: T1, recombinant, soluble human ASGR-1 (human, UniProt P07306 62-291); assay: Octet BLI dissociation, pH 7.4 minus calcium
T1 construct: biotinylated in the binning assay; also called soluble huASGR-1; Soluble ASGR-1 (Amgen)
T1 sequence: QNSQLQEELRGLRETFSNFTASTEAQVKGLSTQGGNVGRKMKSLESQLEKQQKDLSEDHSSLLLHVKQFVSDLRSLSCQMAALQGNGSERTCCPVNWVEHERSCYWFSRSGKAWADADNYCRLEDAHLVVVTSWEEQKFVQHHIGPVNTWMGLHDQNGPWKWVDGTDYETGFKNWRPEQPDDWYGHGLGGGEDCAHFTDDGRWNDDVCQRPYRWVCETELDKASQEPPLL
Experimental: (§1) The relative dissociation of ASGR-1 from antibodies was measured using a label-free assay on an OctetHTX instrument (Fortebio). Antibody samples were captured on anti-HuFc kinetic biosensors (ForteBio cat #18-5064) at 5 ug/mL in assay buffer (10 mM Tris, 0.1% Triton, 150 mM NaCl, 1 mg/mL BSA, 1 mM CaCl2, pH7.4) for three minutes. A one minute baseline stabilization step was performed in assay buffer. Soluble ASGR-1 (Amgen) at 6 ug/ml in assay buffer was added and association to the antibodies was monitored for two minutes. Subsequent dissociation of ASGR-1 from the antibodies was performed by incubating the ASGR-1-mAb complexes for 10 minutes under each of the following conditions:
(§2) The binding signal at the end of the 2 minute association phase for each dissociation experiment was set to 100% and used to represent the maximal level of ASGR-1 binding. After 1 minute of dissociation, the percentage of ASGR-1 remaining bound was calculated. The lower the percent remaining at a given time point indicates increased levels of dissociation in response to the test conditions (ie. different pH and/or calcium concentrations). The change in the percentage of ASGR-1 remaining bound in response to each test condition relative to the percent remaining in the control conditions (ie. pH 7.4+calcium) was determined. Cut-offs for an antibody to be categorized as being sensitive to a particular condition were set to >10% (ie. if >10% of the ASGR-1 dissociates from the antibody under a particular test condition compared to control condition, it was deemed sensitive to that condition). The analysis was done using the 1 minute dissociation time point (except for mAb 149A1 which was binned based on the 4 minute dissociation time point). Using this analysis, the ASGR-1-binding, receptor-ligand blocking antibodies were separated into groups according to their dissociation profiles in response to pH and calcium (Table 7.3). Antibodies belonging to each category were observed.

[2] = target: T1, recombinant, soluble human ASGR-1; assay: Octet BLI dissociation, pH 5.6 minus calcium
Experimental: as §1, §2

[3] = target: T1, recombinant, soluble human ASGR-1; assay: Octet BLI dissociation, pH 5.6 plus calcium
Experimental: as §1, §2

Binder	% Change Compared to pH 7.4 + Calcium [1] [%]	% Change Compared to pH 7.4 + Calcium [2] [%]	% Change Compared to pH 7.4 + Calcium [3] [%]
B1	22	35	30
B2	38	51	12
B3	5	10	-1
B4	22	47	39
B5	48	74	52
B6	12	45	33
B7	32	43	26
B8	20	49	42
B9	37	44	62
B10	25	37	18
B11	8	47	3
B12	20	59	15
B13	9	14	5
B14	14	42	25
B15	3	18	11
B16	6	7	6
B17	1	1	-3
B18	1	0	-3
